Results: patent US20230265192A1 (GIGAGEN, published 2023)

What was measured:
[1] = target: T1, rcmCTLA-4-Fc from ACROBiosystems (CT4-C5256) (cynomolgus monkey); assay: ELISA, against R&D rhCTLA-4 Fc on the same plate
T1 construct: also called ACROBiosystems rcmCTLA-4 Fc; ACROBiosystems cCTLA-4 Fc
Protocol: (§1) Recombinant human CTLA-4-Fc (rhCTLA-4) from R&D Systems (7268-CT-100, FIGS. 36A-36C) was coated at 1 ug/mL, on the other half of each of the plates. […] RhCTLA-4-Fc (ACROBiosystems, CT4-H5229, FIGS. 36D-E) was coated at 1 ug/mL, on the other half of each of these plates. After coating, the plates were incubated overnight at 4° C.
(§2) The following day, the plates were blocked with 5% milk in PBST for 1 hour on a plate shaker at room temperature. […] Excess, unbound mAbs were removed by washing with PBST. Bound mAbs were then detected with an HRP-conjugated anti-kappa light chain antibody (0.5 ug/ml, Southern Biotech 2060-50). After incubation on a plate shaker for 1 hour at room temperature and washing, the plates were developed with TMB substrate. After sufficient signal was achieved, 1 N hydrochloric acid was added to stop development. Absorbance at 450 nm was read using a Spectramax i3x plate reader (Molecular Devices). EC50 values were calculated by plotting absorbance vs. the log of concentration using Prism (GraphPad).

[2] = target: T2, rcmCTLA-4-Fc from Sino Biological (90213-C02H) (cynomolgus monkey); assay: ELISA, against R&D rhCTLA-4 Fc on the same plate
T2 construct: also called Sino Biological rcmCTLA-4 Fc
Protocol: as §1, §2

- Fold Change (EC50 of cyno divided by EC50 of human) [1]: 1.3
- Fold Change (EC50 of cyno divided by EC50 of human) [2]: 1.6
B1: Ipilimumab (antibody, V domains shown)
VH: QVQLVESGGGVVQPGRSLRLSCAASGFTFSSYTMHWVRQAPGKGLEWVTFISYDGNNKYYADSVKGRFTISRDNSKNTLYLQMNSLRAEDTAIYYCARTGWLGPFDYWGQGTLVTVSSA
VL: not shown
notes: also called commercial ipilimumab; Yervoy
